Laboratory results reported in paper PMC3836970.

Experiments:
[1] = target: Streptomyces phage φBT1 integrase (Streptomyces phage φBT1)
[2] = target: Gp3 of Streptomyces phage φBT1 (recombination directionality factor, excisionase) (Streptomyces phage φBT1); assay: cross-linking; purified proteins, alone or mixed, incubated with or without dimethyl suberimidate (DMS), analysed by SDS-PAGE
[3] = target: Streptomyces phage φBT1 integrase (Streptomyces phage φBT1); assay: as above

With “Gp3 of Streptomyces phage φBT1 (recombination directionality factor, excisionase) (natural protein)” the quantitative in vitro recombination (blue-white screen, white colonies): excision between attL and attR with integrase and Gp3 [1] was 89%, the quantitative in vitro recombination (blue-white screen, white colonies): integration between attB and attP in the presence of Gp3 (more than 90% without Gp3) [1] was 2% and the stoichiometry N [2] was 2.
“Streptomyces phage φBT1 integrase (enzyme)” gave a stoichiometry N [3] of 2.
